Measured values taken from publication doi:10.1101/2022.05.31.494188.

These substances were tested against Recombinant envelope glycoprotein gp120 from HIV-1 (CM235) (HIV-1 (CM235)) (assay: ELISA).

Substance | EC50
Avaren-Fc produced in wild-type N. benthamiana (AvFc^WT) (Fc fusion) | 0.051 nM
Aglycosylated Avaren-Fc variant (AvFc^Δgly), N200Q (Fc fusion) | 0.061 nM
Avaren-Fc produced in glycoengineered ΔXylT/ΔFucT N. benthamiana (AvFc^ΔXF) (Fc fusion) | 0.048 nM
